Assay results taken from ChEMBL document CHEMBL2074463, “Characterization of the hepatic canalicular membrane transport of a model oligopeptide: ditekiren” (J Pharmacol Exp Ther, 1997).

Test system: CC[C@H](C)[C@H](NC(=O)[C@@H](C[C@H](O)[C@H](CC(C)C)NC(=O)[C@H](Cc1c[nH]cn1)N(C)C(=O)[C@H](Cc1ccccc1)NC(=O)[C@@H]1CCCN1C(=O)OC(C)(C)C)C(C)C)C(=O)NCc1ccccn1
Test: TP_TRANSPORTER: uptake, inhibited by Cyclosporine, Nicardipine, Daunomycin, Verapamil, Reserpine, Rhodamine 123 and Vinblastine in bile canalicular membrane vesicles
Format: functional, cell membranes
Conditions: Rattus norvegicus; Bile canalicular membrane vesicle

**Q.** How did the Km turn out when “Multidrug resistance protein 1a (Rattus norvegicus), Q6PSM0” was run?
**A.** 19.1 µM
